Data from the domain aggregation screens of Martell et al. (2025).

Test: soluble fraction after stress (log2 fold change); higher = more stays soluble; pooled small domains, quantitative proteomics
Conditions: stress: pH 4
Method in brief: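 Aggregation propensity is read out as the fold change in how much of each domain remains soluble after acid stress. The custom small-domain libraries were pooled, held at pH 4 and analysed with high-throughput quantitative proteomics. On the log2 scale used, higher values mean more of the domain stayed soluble.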

Sequence	soluble fraction (log2)
HMSFNNHYEILQVQPSADREVIEAAAKALLKKHHPDLGGRNTITSHIVQAKKVLTDTSQRADFDARLRERL	0.165
HMSFNSQENKSVLWQFLLENNFFIGLSDKKFNKVKDIFEKNIQSISIVNDSISNKNKILIQKMMEELELL	-1.46
HMSFPDTYFKGNKVIGLSYNDLKKFLNNAGYSKFDEEVEEWGEKRVSIEDDMVDFYLEDDKVVSI	-0.356
HMSFPFLMPNLEGLQLDQVRVILEENGLEIGQENYQPDSKFGPGTIINHQPSVDTVVQTGQKVNLQISGTD	-1.14
HMSFSSLSNDILSEIQKDNNITYDELSEKLQKDRATIYRNMKKLVENGLLKRVGGRKSGHWEIIE	≥ 0.43
HMSFVDFYGLFTTELQRLAELPVTADELIKNTGLHKSQLTDWLKRAEEDGVVKKLNRPVRYQVEKK	-0.989
HMSGAQIQQLLESRAPQPGMNPDMIVRRKTYMNNVFNALKGALLRVANGSSPEEVKTEVDAAIQVDPDKL	-0.151
HMSGEVLTAVVPETASGERLDKVLPQIFPPYSRSQLQTWLKEGRVTLDREIPAARLAVIGGETLRLEVPSL	-0.0494
HMSGFFVYPNPAKSNIIHFPNKKSFYIYDTSGRLLIEGKGKDFIDVSTLDRGVYLLKTFENDIVKIII	-0.585
HMSGGIVRLAVKPWGEVFVDGASRGITPPLKQLTLDAGVHRIEIRNPAGPSWTKDVDVVAGQPTTVSHRF	0.0131
HMSGITDIITDGKATSRPVVVTDGGHIRVLSPYTSFAIYTLGGMSLPTESRLEPGIYIVVVDSNAVKVAV	-0.408
HMSGLGELTPRELEVLELMAQGLSNSQIAGRLFLSGAAVAKHVSSIFSKLGFEPGDENRRVRAILAFLNR	-0.751
HMSGLLTTSKLAQKHKMKTEPMLEKLTAAGYLEWRDDKHSLTEQGKKAGGQFKTGRFGAYFLWPEDLV	0.116
HMSGPDGLTEREIEVLRLLASGLSNRAIGERLYISTNTAANHVRSILLKTGAANRTQAAMYAADHEML	0.0798
HMSGPFTELTPREREILSHLAEGQSNKVIARHLQISDGTVKLHVKAILRKLEVHSRVEAAVMAVEHGV	0.0256
HMSGPMVPNVVGLSEEMARALLSDYSITIKHAHDGVIPKDRVASQLPLATTHAKVGSSVVLTIS	0.238
HMSGQLTEEQVKQIVTTAVKNSSGSTLTAAEVSRIVSTAVANNLTADQVKTVVNNALAGITTDISTLKA	0.202
HMSGSFDVTLDYLNSLRNLYPAIDVEQEFRKMYAWLDSNPKNRKTERGIKRFITGWLGRAQDKAP	-0.9
HMSGSLLQTRQRLQALTDLGHYKGDLAAAWGPEAIEALKRAQAALGITVDGKWGPETEDAIQVALQAQT	-0.133
HMSGSPREQAESEYRKAIAAVNQGRVSEATESLRAALRLDAFQVAARQLLVKLLLEAKNQDEAIQVLR	-0.489
HMSGTMYATAEVNVRSTYSSDGTIYGTLSKGTAVEITGTTDNGWVRVKYNGTTAYVYADYLSWKAP	0.144
HMSGYAIVNNQPGRTLNLRNSPSQSNNIIGQIPSGTRLQLISRGETWSEVIFQTTRGFVMSSFLRFET	-0.17
HMSHGNAALTPRQRLRLARLVVDDQWSVSAAAEFFRVSYPTAAKWARRYVELGPAGMADRSS	-0.0854

Sequence	soluble fraction (log2)
HMSHRVGDVVELTAVRMNDQGVFLDAGTGNTSDDILLHKHQMTSPVSVGDKVKVQLYLDAKNRITASMKL	-0.199
HMSIEIIEITSNSSPKNLSEIIDIDATQIVADLMGLGIMKAIDTPLENSEIEQLLEKYNLIAEFVE	-2.51
HMSILEIFGRNVQKYRKEQRLSQEKLAEYAGLHRTYIGMIERAEKNITLVNIEKIAKALNINLTKLLE	0.0741
HMSILTELDIGDKVEVVAGPFKGIQANITRIEPVRKEVTVILLDAPYQLPVTVDADYLKIIQKS	-0.0376
HMSINISFEPADHLGKDVIFIRFPYDNEWIQRVRKLKGAKWSQSQRAWHVPDTEHYRTLFQLPQKI	-0.704
HMSIQDLMNSKDLSGFKVEMLSNEDIVKYKSMLQSSGFSESQAEQLALQRGLPTSELIKLRTRISDVAVT	0.17
HMSIQELMNSKDLSSFKVEMLSDEDIAKYKGLLQNSGLTEAQAEQMALQRGLPSSELLKLKARLSGI	0.0846
HMSIQREIILEVIKNNRTHPTAEEIYILVTKKEPKISRSTVYRNINILVEKGIIEKITIATGPDRYDY	-0.126
HMSISDEDFAKLLDFVKEKWDAGELDNAEDIKAAISEGEKEFGVSLDESTRTTLASALQQLN	-0.496
HMSIYDAPIEDLKFSTRIFNSLKRADIHTVADLIAHSRDDLMKVRNLGATSLDELIEKLGTHGLQLADP	-0.356
HMSIYYQIYESLKKDLSNNLYKPGEKLPSENVLSKRFGVNRHTIRRSLQLLKNEGILFSKRGSGIIVHD	0.359
HMSKDKEKRTREHVLGILKKYDKVMTDKAFTVFKKMIKDESILEMELIKLINFIGERKEIRSKDVLAVVTE	-0.329
HMSKEIQNILASLPSVDVLLKQIDPIYPHGKAKEATQQVVARLRESVVDGTRKTVIDQKEVIAMIHKQLEE	-0.149
HMSKETTYEVLSLKGDEWQTDTIYSDRDEAIEAARNLHGDPHIDGAKVISEVYDDKTGGSKETTIFNT	-0.21
HMSKHAIQNELEKIEGIGKQTADSLLKEFKSVKKLRTLPLSEIEKVIGKSKATIVFEALHKDK	0.0949
HMSKHATLLEALADLSVKLKPHSQLPSERALSEEYGVSRMTLRRAIDVLQARGYIYSVPSKGLFVSEP	-0.0584
HMSKHATLLEALAELTVKLKPHTQLPSERQLSEDFGVSRMTLRRAIDVMQSRGYIYTVPSKGLYVSEP	-0.156
HMSKIRTFRVKTVAVDQAYQVLKDYSPIKISTESNAVIIDLDESKTPAEIAGYLEKNGIKVDNIEVIAESE	-0.148
HMSKISKENEQQVIQIVQTLLLNVQDKSLITTQILNEKINLAVSLDTKYKENLDRDYIIEELIRRYSVW	-2.54
HMSKKIVLPAAITVKKFSETLDMPLGTVISELMKNGILATINERIDFETASIIAQDLGYEVSEEV	0.0626
HMSKKQEQALQSREKLLDAATALFAEHGYRDTSVQAIGEKAGVSRGSIFWHFGSKEGLLWAVVERAFTA	0.346
HMSKKTQKDEVVDLFLKTGNEPLHYKEISKKTGIIVHNVRRITGQNVVGKTDNPVFKRVSPGVYKLID	-0.0395
HMSKLSVSSLSSPEVQNQLKAAGIDVNSRQYQVVMKDMMGALDGRAGYTTVSAIKNRMRQYNADGDY	0.19

Sequence	soluble fraction (log2)
HMSKMVEMSQEKSREKVARVKIEIQKMLDRKERVTVSGLERATGFSNSFFYRNEEVNQAVKEAQLKQ	0.0693
HMSKNIRQQFLDVLPKTFDRNQYLETAKKLSINAKTAEGYIKKFVEANLLDHPKHNHYINLKKVEEVETK	-0.0789
HMSKNYYEILGVTPDVELSQLKAVYRRLVRKYHPDINPDGELIFKDITEAYEVLSDEKQRKQYDMINGF	-0.362
HMSKPILSFVDPEKDPSHYVKRYITEETYKDWFSEHFPDYTLYEGIGITQEEYRNIVNELTKP	-1.7
HMSKPIYSELLREIRSGDVKELTLIPQRREVLVEYSDGRKATVSILANDQQVLRTAESAGVPLTVK	0.116
HMSKPVFQTHSVRSADSATVFDVLQTLLAGTPDARIAIDPKTNAIVAWARPETQEVIAKSIMEMEG	-0.418
HMSKQIEVPDVTDMTVSDAIDVLQDKGFVVSDEQKEVASSEIEEGRVVRTSPAVGSKRKDGTVVTLYVSI	-0.479
HMSKTEEIAYTTFVKYLENKDIEEVYLGNNAKIKVILKDGREMITDNPRTADFKKDLLLHDIKVVEKT	≥ 0.43
HMSKYGIAYSEVLEILKHIPIEDYNKIPRNEIELFETYADKDFTFNYDSSKTLEEQNVSNITKGIIIL	-0.465
HMSLEEQNGAKDRQVEAYELLLKAQRALDQEDTAGFQAAMKDLEPLSSQLDAQGQTLYHELLPFVS	-0.246
HMSLGSNISRLRAEKHLSQGDLAEALDVSRQSVSKWETDGSVPDLDKLVKLSRIFGVTLDELVTGTP	0.0988
HMSLIHEQSLKEIRIFINNLPESLRTAFTLREQDGLSYEEISKITDTPIGTVRSRIFRARESILEHINEEL	-0.599
HMSLLTPLEEARIVIEELIIPQKLTLDLLPQNSQIRKLQHEIINHYRLKGISIGDGKNRRVRIYS	-1.48
HMSLMHEESLKNIRRFINSLPESLRTAFTLREQDGLSYEEIGVITETPIGTVRSRIFRAREAILEHIKKEL	-0.445
HMSLMLYVEDVDTAFKKAIELGATEIRPVHDQFYGDRAGTLQDPFGHIWIIGTHKEDVSDEELNNRIGNI	-0.332
HMSLPNNLIEQLQDPEPKARRRAVRRLAATRDPSAIPLLRNVYLQDGDDRVRDAAEAALVQFRAMQHN	0.104
HMSLPTYVQISEAIARRITAGQWLDGERLPPERTMAAEFGVAVGTLRKALSRLQDQKLLRRLQGSGNYINI	-0.264
HMSLREKNKARTRTAILNAARDLAKQGQWDAITTRQIADAAGVSYQTLYNYYPSKASILVEMLL	-0.219
HMSLSDDIAQTLRQLGFDRDVSETLANDVLPAMPTRQDVIDLLGTLGIEKHVAADFANFVVLN	-1.08
HMSLSEYLSAPVLEGQRNHALFSAVMQAREQGWDEWQIRTTIGAKAEADGLRHAEIAATIRSAMSREITP	-0.0425
HMSLSIKINHESVGLRLDQFLQEHYYKQQSRSYVQHAIKEGYILVNGQSVKNGYMLKLDDLIELEAI	-0.166
HMSLSNMIGKNIQWTHVTKTKDAEGNPKTNSETFAGNVRGVKVLNGKPMVVAQDAKGKLHEVEVSEIEAIA	0.22
